Assay results as given in the supplement of paper PMC9112550, “Optimization of the antimicrobial peptide Bac7 by deep mutational scanning” (BMC Biology, 2022).

Tested on: Escherichia coli TOP10
Experiment: shrunken log2 fold change of peptide-encoding DNA abundance (4.5 h post-induction vs induction); higher = less antimicrobial activity (less host growth inhibition)
Settings: time post-induction: 4.5 h; library: site-saturation at positions 5, 18, 19, 20
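Also: peptides expressed intracellularly from a pBAD plasmid library in pooled LB shake-flask culture, induced with 0.3% L-arabinose, DNA abundance read by NGS, three biological replicates, DESeq2 with apeglm shrinkage.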

Sequence | shrunken log2 fold change
RRIRHRPPRLPRPRPRPRTVPRP | 0.126
RRIRPRPPRLPRPRPRPHGYPRP | -0.0483
RRIRMRPPRLPRPRPRPYITPRP | -0.393
RRIRFRPPRLPRPRPRPEAPPRP | 0.529
RRIRLRPPRLPRPRPRPYEPPRP | -0.0278
RRIRRRPPRLPRPRPRPLFSPRP | -0.0439
RRIRWRPPRLPRPRPRPHGDPRP | 0.145
RRIRVRPPRLPRPRPRPVVVPRP | -0.194
RRIRRRPPRLPRPRPRPILVPRP | -0.106
RRIRLRPPRLPRPRPRPYHPPRP | -0.00992
RRIRFRPPRLPRPRPRPPNCPRP | -0.159
RRIRNRPPRLPRPRPRPTKTPRP | 0.0911
RRIRNRPPRLPRPRPRPHYCPRP | -0.481
RRIRKRPPRLPRPRPRPMKMPRP | 0.473
RRIRDRPPRLPRPRPRPNCHPRP | -0.23
RRIRMRPPRLPRPRPRPRNYPRP | -0.0232
RRIRLRPPRLPRPRPRPVGFPRP | 0.212
RRIRDRPPRLPRPRPRPGYEPRP | -0.0119
RRIRSRPPRLPRPRPRPMYMPRP | -0.387
RRIRMRPPRLPRPRPRPKNVPRP | -0.16
RRIRLRPPRLPRPRPRPDRFPRP | -0.00452
RRIRNRPPRLPRPRPRPHVEPRP | -0.326
RRIRVRPPRLPRPRPRPKSLPRP | -0.0854
RRIRHRPPRLPRPRPRPRIPPRP | -0.32
RRIRVRPPRLPRPRPRPMHYPRP | -0.266

Sequence | shrunken log2 fold change
RRIRARPPRLPRPRPRPPAPPRP | 1.19
RRIRTRPPRLPRPRPRPERGPRP | 0.715
RRIRWRPPRLPRPRPRPIGEPRP | 0.0833
RRIRIRPPRLPRPRPRPCLVPRP | -0.687
RRIRSRPPRLPRPRPRPTDTPRP | -0.214
RRIRYRPPRLPRPRPRPYTPPRP | -1.28
RRIRQRPPRLPRPRPRPQGNPRP | 0.00341
RRIRNRPPRLPRPRPRPSHIPRP | -0.69
RRIRFRPPRLPRPRPRPPRKPRP | 0.827
RRIRVRPPRLPRPRPRPHCTPRP | -1.21
RRIRNRPPRLPRPRPRPTWIPRP | -0.0601
RRIRIRPPRLPRPRPRPNNWPRP | -0.535
RRIRSRPPRLPRPRPRPSTKPRP | -0.00791
RRIRDRPPRLPRPRPRPVGQPRP | 0.435
RRIRRRPPRLPRPRPRPMHAPRP | 1.49
RRIRHRPPRLPRPRPRPIVCPRP | -0.0297
RRIRGRPPRLPRPRPRPKIMPRP | 0.322
RRIRNRPPRLPRPRPRPPCYPRP | -0.41
RRIRLRPPRLPRPRPRPFLVPRP | -0.338
RRIRYRPPRLPRPRPRPRLIPRP | -0.466
RRIRARPPRLPRPRPRPFFYPRP | 0.105
RRIRLRPPRLPRPRPRPMYQPRP | -0.29
RRIRGRPPRLPRPRPRPYACPRP | -0.00589
RRIRMRPPRLPRPRPRPLRRPRP | 1.94
RRIRDRPPRLPRPRPRPLEQPRP | 0.57

Sequence | shrunken log2 fold change
RRIRHRPPRLPRPRPRPDVYPRP | 0.0592
RRIRDRPPRLPRPRPRPKYKPRP | -0.739
RRIRCRPPRLPRPRPRPMWEPRP | -0.0554
RRIRGRPPRLPRPRPRPEHGPRP | 0.602
RRIRFRPPRLPRPRPRPKTVPRP | -0.117
RRIRTRPPRLPRPRPRPNPAPRP | 0.147
RRIRHRPPRLPRPRPRPDDWPRP | -0.0115
RRIRVRPPRLPRPRPRPHFKPRP | -0.0898
RRIRLRPPRLPRPRPRPGHHPRP | -0.2
RRIRLRPPRLPRPRPRPAGCPRP | 0.263
RRIRRRPPRLPRPRPRPAYIPRP | -0.201
RRIRLRPPRLPRPRPRPREYPRP | 0.289
RRIRMRPPRLPRPRPRPRIGPRP | 0.396
RRIRARPPRLPRPRPRPVFMPRP | 0.0722
RRIRHRPPRLPRPRPRPMENPRP | 0.00439
RRIRHRPPRLPRPRPRPQPPPRP | 0.373
RRIRVRPPRLPRPRPRPKFNPRP | -0.42
RRIRRRPPRLPRPRPRPENVPRP | -0.0722
RRIRDRPPRLPRPRPRPAKPPRP | 0.419
RRIRNRPPRLPRPRPRPWQNPRP | 0.191
RRIRNRPPRLPRPRPRPCARPRP | -0.213
RRIRERPPRLPRPRPRPHPYPRP | -0.103
RRIRHRPPRLPRPRPRPEHNPRP | -0.0734
RRIRCRPPRLPRPRPRPYHEPRP | -0.329
RRIRWRPPRLPRPRPRPVCEPRP | 0.825
